Biological target: the molecule itself
Assay: size-exclusion chromatography of the PR-LBD/tanaproget complex

B1: Human progesterone receptor ligand binding domain (PR-LBD), polypeptide following thrombin cleavage of the GST fusion (receptor)
chain: GSPGQDIQLIPPLINLLMSIEPDVIYAGHDNTKPDTSSSLLTSLNQLGERQLLSVVKWSKSLPGFRNLHIDDQITLIQYSWMSLMVFGLGWRSYKHVSGQMLYFAPDLILNEQRMKESSFYSLCLTMWQIPQEFVKLQVSQEEFLCMKVLLLLNTIPLEGLRSQTQFEEMRSSYIRELIKAIGLRQKGVVSSSQRFYQLTKLLDNLHDLVKQLHLYCLNTFIQSRALSVEFPEMMSEVIAAQLPKILAGMVKPLLFHKK
notes: In the size-exclusion run and in the crystal each chain carried the small molecule tanaproget; also called human PR-LBD; PR-LBD (675-933)
Q: Does B1 bind?
A: binds

Source: US20060074081A1 (Pfizer, published 2006)
